Values of other authors, collected in patent US20030175848A1, “Substituted dithiobisnitrobenzenes and their applications” (Institut Pasteur De Lille, priority 1998, published 2003).

Target: T1, human thioredoxin reductase (hTrxR) (Homo sapiens, UniProt Q16881)
T1 construct: U of native hTrxR; from tissue; host or cells: human placenta
T1 sequence (Q16881 151-649 limits assumed): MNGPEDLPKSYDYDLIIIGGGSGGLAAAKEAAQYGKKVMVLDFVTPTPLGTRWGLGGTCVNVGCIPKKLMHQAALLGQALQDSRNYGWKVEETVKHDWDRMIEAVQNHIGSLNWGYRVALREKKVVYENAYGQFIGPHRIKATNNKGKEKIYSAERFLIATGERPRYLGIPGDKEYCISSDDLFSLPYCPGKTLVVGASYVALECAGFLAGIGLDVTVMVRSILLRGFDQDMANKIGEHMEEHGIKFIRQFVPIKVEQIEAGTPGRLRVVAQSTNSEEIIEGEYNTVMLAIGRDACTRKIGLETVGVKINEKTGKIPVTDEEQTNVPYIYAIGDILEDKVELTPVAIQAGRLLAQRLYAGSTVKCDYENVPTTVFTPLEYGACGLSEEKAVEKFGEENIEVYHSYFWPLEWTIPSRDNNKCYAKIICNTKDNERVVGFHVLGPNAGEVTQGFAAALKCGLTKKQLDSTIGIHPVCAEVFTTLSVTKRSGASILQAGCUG
Settings: substrate of native hTrxR (placenta); references [29], [38]

B1: HTrx: human thioredoxin, physiological substrate of hTrxR (protein, UniProt P10599 2-105, looked up)
Thioredoxin: VKQIESKTAFQEALDAAGDKLVVVDFSATWCGPCKMIKPFFHSLSEKYSNVIFLEVDVDDCQDVASECEVKCMPTFQFFKKGQKVGEFSGANKEKLEATINELV
For B1, the Km is listed as 4.3 µM.
